According to patent US20260176335A1 (TRUSTEES OF COLUMBIA UNIVERSITY IN THE CITY OF NEW YORK, published 2026):

Columns and labels:
[1] = biological target: T1, human serum amyloid A1 (SAA1) (human, UniProt P0DJI8 19-122); experiment: cell-based or functional assay
T1 sequence (looked up): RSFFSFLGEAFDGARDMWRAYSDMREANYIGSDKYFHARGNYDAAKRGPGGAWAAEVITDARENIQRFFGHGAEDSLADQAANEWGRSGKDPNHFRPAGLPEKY

[2] = biological target: T1, human serum amyloid A1 (SAA1); experiment: Kd calculated from competitive binding curves (competitive peptide 0.625-80 nM against SAA1 at 150 ng/ml), NFκB-luciferase reporter cell readout
Procedure: Raw 264.7-NFκB-Luc cells were seeded at a density of 60,000 cells in 40 μl media/well in a 96-well plate. The plate was placed at 37° C. in a 5% CO₂ incubator overnight to allow cells to adhere. 5 μL of SAA1 antigen solution (150 ng/ml) was added to each well. 10 μL of the competitive antigen standard solution was added to the respective wells. 10 μL of the purified antibody (18A3-S1-F) solution was added to each well.
The plate was incubated at 37° C. in a 5% CO₂ incubator for 2 hours to allow binding between the antibody and antigens. 10 μL of the viability dye (i.e., the Cell Titer Fluor reagent; Promega) was added, and the plate was rocked for 5 minutes and incubated at 37° C. in a 5% CO₂ incubator for 30 minutes. Then […] reading was taken with 7-amino-4-trifluoromethyl-coumarin (AFC) (excitation 405 nm/emission […]). After 3 hours, 1:1 Bright Glo Luciferase reagent (Promega) was added, and the plate was rocked for 5 minutes in dark (covered with foil) before the reading was taken.
The dissociation constant (Kd) was calculated from the competitive binding curves (FIG. 4E). The lower the Kd value, the higher the binding affinity of the antibody.

B1: murine anti-SAA1 18A3 antibody (antibody, V domains shown)
VH: DVQLVESGGGLVQSGGSRKLSCAASGFTFSRFGMHWVRQAPEKGLEWVAYISRGSTKIYYADTVKGRFTISRDNPRNTLFLQMTSLRSEDTAMYYCARSLIYYDYDGFGYWGQGTLVTVSA
VL: DVLMTQTPLSLPLSLGDQASISCRSSQSIVHSNGNTYLEWYLQKPGQSPKLLIYKVSNRFSGVPDRFSGSGSGTDFTLKISRVEAEDLGVYYCFQGSHVPPTFGGGTKLEIK
notes: Murine hybridoma monoclonal antibody; Tested as hybridoma supernatant or as purified antibody from subclone 18A3-S1-F / 18A3-S1; also called 18A3-S1-F; 18A3-S1
[1]
  EC50 (half-maximal inhibition of SAA1-induced NFκβ activation, reporter assay): 2.55 nM
[2]
  Kd: 0.94 to 1.12 nM
